Experiment: label from the status in PepcDB records

Sequence | protein production
MMEVGILPVHVLYVFFIGAIILFMLLRKDTTFISLFGIFIISLWASHSLSASVSSLFHSFIYAAGELLPTIFIICFIVSMSDLLTKTGINEAMISPFASLVRGPVTAYWLIGGLMFAISLFFWPSPGVALIGAVLLPAAARAGLTPLAAAMAMNLFGHGFALSGDFVIQAAPKLTADAAGIPVGDVVSASIPLVLIMGVTTTTAAFIMIQRERKKQEHPTSFSPVLSGEQDNSLYLPKRLRSILAFLIPLAFLADIACMLLFNLQGNDATALIGGSAICILFTVHFFVYKHKGLEKITGYFIDGFKFGFKVFGPVIPIAAFFYLGDSGYESILGTSLPKGSHGIVNDLGIALSHMMPMSKELAATALTAAGAITGLDGSGFSGISLAGSIAKLFSSALHADPAILTALGQISAIWVGGGTLVPWALIPAAAICKVDPFELARKNFIPVAIGLLVTTLAAVMML | failed
MRVKTIMTQNPVTITLPATRNYALELFKKYKVRSFPVVNKEGKLVGIISVKRILVNPDEEQLAMLVKRDVPVVKENDTLKKAAKLMLEYDYRRVVVVDSKGKPVGILTVGDIIRRYFAKSEKYKGVEIEPYYQRYVSIVWEGTPLKAALKALLLSNSMALPVVDSEGNLVGIVDETDLLRDSEIVRIMKSTELAASSEEEWILESHPTLLFEKFELQLPNKPVAEIMTRDVIVATPHMTVHEVALKMAKYSIEQLPVIRGEGDLIGLIRDFDLLKVLVKSKA | not failed
MDFDTIQIDYEKEETVMIGRAADKIFTRVFIFLIMTVYFWIYTVAGLVVLGIGPAFRTVTEMHMDKQWDYRLYHFKEGWQRFKRHFWQMNLHTWLFLGVGAVLAYNLYLSLSIHTLWIIFIQFIIVFALILDFSLAIFTVMLRSRYDVAFKDAIKLAIVQFFSNFTQLLTFIIGTIVLIVISLKWPGMILFLSPGIYMVGADRLSRRWYDKIDKMLGAV | failed
GSHMLGGKGRPSGVGGYRILVTTSRRPSPRIRSFVKDLSATIPGAFRFTRGHYSMEELAREAIIRGADRIVVVGERRGNPGIIRVYAVEGPERPDNIVSFIVKGVSLSRERRWGLPSLRGGEVLVARPLDSGVAVEFADAFVIAFHARLKPPEAAGYVEAVIESLDARTVAVTFRYGGAPVGPMLRLGKPAEMVKRGRRV | not failed
MKKLLTFIMACVISLGATAQISEKAFEKWHQNKYSMFIHFGLYSELGGVWEGNPVTRGYSEQIQSFAGIFSDWYGDTALRFNPTLFDADAIVSLAKEAGMRSIIITTKHHDGFCMFRTATTDYNSYDATPGKRDFIKEMAEACKRGGINFGIYFSLIDWHFPQAYPISSHNCDFITPQHHEFTKAQVTELLTNYGPISELWFDMGSNTPEQSKELYQLVHRLQPDCMVSGRLGNDQYDFSVMADNTYPEGSLQTAWQTAASMFDETWSYRSWQKRGDVHTKAMEKLRSLINVVSHGGNFLLNIGPKGDGSVVPFEREVLKEIGIWLKKNGEAIYGTEASPFREQFEWGTITRKGNNLYLILSGNRPADGKITLNVPGCKLQKADIKAIQKGQEMIFTLPADAYGKDIQVICATFDQPVKPQPMAAQRTPNYSYSCFDYYSNYRSTVSYQWSINKSNLNALEFTYTPQENGKELLVEVDGIPYTVTLDAGKAQALNLPSKTVWGQRYFCGPGSGLFDAPATIHTDPDKAPVRKGQWKEVNEEKAMFPSNILESYFLMQQVESPKAQDILVDVGAGNGIEIYLNGKSVMKHLNPYRCKFREEKVLLPLQKGSNQIVVRIYNRFEKETGYLLRPSAEQVIYKQKFTLPQVAKGKVHTVVVKQNNLPSIHKDTELSNLKVEAK | failed
MLLEQQKQLISLIQAAVAQCLPEAQAQVQLERPKVAAHGDIATNVAMQLAKPARRNPRELAQGIVDALMAQPQARELIQDAEIAGPGFINFRLTPAARQAVVQAVASQADA | failed
MNKLEERSQHRKSRFRFLVISTFWRVLLLLKNDAEPLFHLGNIHYAYGHKASAMNYWKEAVSKNREHEKAWHNLVQCAVIQEEWEQAAEGLTILCRNHPTRFEYMSLYTHALKKLGKKEELEEWYLSHINGPHHEWAIEGLGMLYIRTRREIDAFKLLSPFVRKFPNRPVGLKILGISSIRTNQYEAGLTFLEKSLELKEDKEVKSLVDRVKRLKKVRGGNR | failed
MAEEQAATAMETSAVEKQPETTTEAEAPSLTTKRMVVAIDESDSSFYALQWVIDHFSNLLLTTAAAEAESGMLTVIHVQSPFNHFAAFPAGPGGATAVYASSSMIESVKKAQQETSAALLSRALQMCRAKQIRTETLVLEGEAKEMICEAVEKMHVDLLVVGSRGLGKIKRAFLGSVSDYCAHHANCPILIVKPPKEMTK | failed
MKVLREDEESEIVKQFLDDNNSVIVDFDPIDLYEAVHPPFSIRLSIDRISAMPLSILRRRAAAFVSDPQTLSKLLNNDIAGKFDFIYDNSNRSWQKYYPFSYYRSINAADLYENIKAYTVLDVREPFELIFGSIANSINIPISELREKWKILERDKKYAVICAHGNRSAAAVEFLSQLGLNIVDVEGGIQSWIEEGYPVVYGRESAED | failed
MPAKTALIYSNDFSRFSYGDDHPFKIQRIILARELMGMLGLTELPGACIHDCPRADEASLLTFHSPDYLQRLREFSDSDEPRADFRYGLGDLDNPVFKGFYDWAILGVGGTMEAARLVTEEGYDIAFTMAGGWHHAHRSKASGFSYLNDAVIAINTLVAKGLRVAYLDIDAHHGDGVQEAFYDTDQVLTVSIHESGIYFFPGTGFEDEIGRGQGRGYSVNVPLVAHTDDALFMKAFDEVAYPLIAAYNPDVLVTQLGVDTFRTDPLTRLEITTHSYTYILRKLKALKIPWVAVGGGGYNMINVARGWTLAWGIMNGVELPPKLPAQFVDMIAPMGHPNRMLLDAMHWAEEDDRNRALDAVERSIAAIRETVFPVIIGNYAAAAGE | failed
MAVYTDITEDELRNFLTQYDVGSLTSYKGIAEGVENSNFLLHTTKDPLILTLYEKRVEKNDLPFFLGLMQHLAAKGLSCPLPLPRKDGELLGELSGRPAALISFLEGMWLRKPEAKHCREVGKALAAMHLASEGFEIKRPNALSVDGWKVLWDKSEERADEVEKGLREEIRPEIDYLAAHWPKDLPAGVIHADLFQDNVFFLGDELSGLIDFYFACNDLLAYDVSICLNAWCFEKDGAYNVTKGKALLEGYQSVRPLSEAELEALPLLSRGSALRFFLTRLYDWLTTPAGALVVKKDPLEYLRKLRFHRTIANVAEYGLAGE | not failed
MWMPPRPEEVARKLRRLGFVERMAKGGHRLYTHPDGRIVVVPFHSGELPKGTFKRILRDAGLTEEEFHNL | not failed
MSPGGLCDAPHMAVAPRVKPLDLFTPEEWTRISARSSWRGIWMVAHAWGVILAAGALFVAFPNPLTYVLAVMLIGARQLGLAILMHEAAHGGLHPKLKVNDWLGEWLCAAPVGASLASYRPYHLSHHKYAQQAEDPDLVLSAPFPTTRRSLRRKMIRDLTGQTFFKQRFGPLLGKMKGAKTTGQPKGAIFAGEIARQRPFLLWNLGILVVLSALGLWWAWPALWIVPMATWFPLVTRLRNIAEHALVAKDEPDPFRHARTTNANWIERALIAPYYVNFHAEHHMFMHTPCWNLPLAHRVLEKKGLTQGMLTAPGYLSVLKAASSKPVAA | failed
AQTDPSQLKKEGSDAFNAKNYPVAYAKFSEYLKQTNNQDSAIAYYCGMAADEVKKYAEAVTFFDIAIQKKFNIGNAYARKALALDAMKKTDEYVATLEEGLKVDPDNKTMIKNYGLHYLKAGIAAQKAGKVEEAEECFKKVIPLDHKTYKTNALYSLGVLCYNDGANILKKAAPLANSDADKYAAEKEKADGRFKEAIGYLEEATKVSPEDTKSKTMLSQVQAAMK | not failed
MRRQPSLTLRSTLAFALVAMLTVSGAGLYLYQSIEQTVLQRSDHAVLARLDHFRKLLRYDLTMDNLKGSPQLFENMLDSEEDIFIIGEPGKPPVVSVNPQHAPLPDLPTVAQDQPLRVDDLRSGMSLQGVPLRAAAAQVMSNGVEVRLQAAHLMVKEMAMLASFRQSIYIAVALAFLITAVLGYVLLRRGLRPLRKMAAHAAAITPASLHKRLDSHDTPVELQQLSNAFNAMLDRIDDGYRRLMQFSADLAHEIRTPVGSLMGHCQVALRQDRSVDEYQALLASNLEELERISRLVESILFLARADEAQAALERQPLDLHDELQRVAGYFEGLADERNLKLSPSGRGTLLADPILLRRALSNLVANAIRYADEDSEILIRVVTVDQQWRIEVENQGPVLPHATLARLFDRFYRGDASRHERSDSNGLGLAIVTAIMHLHGGCVEVAQPAVGRICFSLVFPAA | failed
